Reference: patent US20190359653A1 (Genentech, published 2019)

T1: hFZD8 CRD-Fc (human, UniProt Q9H461 28-158, limits assumed)
T1 construct: domain: CRD; bought (R&D Systems); not shown: Fc part
T1 sequence (looked up): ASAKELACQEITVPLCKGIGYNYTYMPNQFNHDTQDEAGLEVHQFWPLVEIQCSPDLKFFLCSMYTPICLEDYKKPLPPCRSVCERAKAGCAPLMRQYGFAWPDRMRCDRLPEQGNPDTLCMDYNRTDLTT


Legend:
Test in all cases: spot phage ELISA
[1] = molecular target: T2, hFZD7 CRD-Fc (human, UniProt O75084 33-185)
[2] = molecular target: T1, hFZD8 CRD-Fc
[3] = molecular target: T2, hFZD7 CRD-Fc; remark: listed apart in the source

| Binder | S/N [1] | S/W [1] | signal:noise ratio [2] | signal:noise ratio [3] |
| --- | --- | --- | --- | --- |
| APSDDLEFWCHVMY [SEQ ID NO 44] | 58.3 | 3.1 | – | – |
| LPSDDLEFWCHVMY (also called Fz7-21) [SEQ ID NO 13] | – | – | 1.1 | 24.5 |
| APADDVEFWCHVMY [SEQ ID NO 43] | 58.6 | 3.1 | – | – |
| APADDLEAWCHVMY [SEQ ID NO 45] | 58.1 | 3.1 | – | – |
| APSDDLEFWCHAMY [SEQ ID NO 46] | 57.2 | 3.1 | – | – |
| VASDDLEAWCHVMY [SEQ ID NO 47] | 57 | 3.1 | – | – |
| AAADDLEFWCHVMY [SEQ ID NO 48] | 56.1 | 3.1 | – | – |
| AASDDLAAWCHVMY [SEQ ID NO 49] | 55.7 | 3 | – | – |
| AASDDLESWCHVMY [SEQ ID NO 50] | 55.6 | 2.9 | – | – |
| APADDLAFWCHVMY [SEQ ID NO 51] | 55.1 | 3 | – | – |
| LPADDLAVWCDVMY [SEQ ID NO 52] | 54.9 | 3.1 | – | – |
| LPSDDLESWCHVMY [SEQ ID NO 53] | 54.5 | 3 | – | – |
| AAADDLEVWCHVMY [SEQ ID NO 54] | 54.4 | 3.1 | – | – |
| APSDDLAAWCHVVY [SEQ ID NO 56] | 54 | 2.9 | – | – |
| AAADDLAAWCDVMY [SEQ ID NO 57] | 54 | 3.1 | – | – |
| VASDDLEFWCHVMY [SEQ ID NO 58] | 54 | 3.2 | – | – |
| APADDLASWCHVMY [SEQ ID NO 61] | 53.5 | 3.2 | – | – |
| VPADDLASWCHVMY [SEQ ID NO 63] | 53.4 | 3.1 | – | – |
| APADDLEFWCHVVY [SEQ ID NO 64] | 53.2 | 3.1 | – | – |
| VPSDDLAFWCHVMY [SEQ ID NO 65] | 53.2 | 3 | – | – |
| VPADDLAFWCHVMY [SEQ ID NO 67] | 52.7 | 3.1 | – | – |

| Binder | S/N [1] | S/W [1] | signal:noise ratio [2] | signal:noise ratio [3] |
| --- | --- | --- | --- | --- |
| VPSDDLASWCHVMY [SEQ ID NO 68] | 52.2 | 3.1 | – | – |
| VPSADLESWCHVMY [SEQ ID NO 69] | 52.2 | 2.9 | – | – |
| AASDDLEAWCHVMY [SEQ ID NO 70] | 52.1 | 3.1 | – | – |
| APSDDLASWCHVMY [SEQ ID NO 71] | 52 | 3.3 | – | – |
| APADDLEFWCHVMY [SEQ ID NO 72] | 51.6 | 3 | – | – |
| APSDDLAAWCHVMY [SEQ ID NO 73] | 51.3 | 3 | – | – |
| APADDLAFWCHVVY [SEQ ID NO 74] | 50.6 | 3.2 | – | – |
| AASDDLAFWCHVMY [SEQ ID NO 77] | 49.7 | 3.1 | – | – |
| VPADDLASWCDVMY [SEQ ID NO 78] | 49.2 | 2.9 | – | – |
| LPSADLESWCHVMY [SEQ ID NO 79] | 48.6 | 2.9 | – | – |
| AAADDLAFWCHVMY [SEQ ID NO 80] | 48.2 | 3.1 | – | – |
| LASDDLEFWCHVMY [SEQ ID NO 81] | 48.1 | 3 | – | – |
| VPSADLETWCHVMY [SEQ ID NO 83] | 47.3 | 2.8 | – | – |
| PPADDLAFWCDVMY [SEQ ID NO 85] | 44.9 | 2.9 | – | – |
| VAADDLAFWCDVMY [SEQ ID NO 88] | 40.7 | 3 | – | – |
| APADDLEFWCHAMY [SEQ ID NO 89] | 36.3 | 1.9 | – | – |
| APADDLAFWCDVMY [SEQ ID NO 90] | 33.8 | 3 | – | – |
| APSDDLAFWCDVMY [SEQ ID NO 91] | 27.4 | 3.1 | – | – |
| LPADDLAFWCDVMY [SEQ ID NO 92] | 23.8 | 2.8 | – | – |
| AAADDLAFWCDVMY [SEQ ID NO 93] | 8.5 | 2.7 | – | – |
| APADDLESWCHVMY [SEQ ID NO 96] | 53.9 | 2.9 | – | – |

| Binder | S/N [1] | S/W [1] | signal:noise ratio [2] | signal:noise ratio [3] |
| --- | --- | --- | --- | --- |
| APSDDLAFWCHVVY [SEQ ID NO 97] | 45 | 2.5 | – | – |
| YEHLHDLMDLIRPW (also called Fz7-07) [SEQ ID NO 1] | – | – | 1.6 | 23.2 |
| ACSYVIDLWNQCLT [SEQ ID NO 4] | – | – | 3.1 | 26.8 |
| VAADDLAAWCHVMY [SEQ ID NO 39] | 60.7 | 3.4 | – | – |
| APSDDVAFWCHVMY [SEQ ID NO 42] | 58.6 | 3.1 | – | – |
| VAADALEFWCHVMY [SEQ ID NO 55] | 54.2 | 3 | – | – |
| AAADDLEAWCAVMY [SEQ ID NO 59] | 53.6 | 3.1 | – | – |
| LAADDLESWCHVMY [SEQ ID NO 60] | 53.5 | 3 | – | – |
| VASDDLASWCHAMY [SEQ ID NO 62] | 53.5 | 3 | – | – |
| VPADALAVWCDVMY [SEQ ID NO 66] | 53 | 2.9 | – | – |
| APSDDLEAWCDVMY [SEQ ID NO 75] | 50.2 | 2.7 | – | – |
| VPSDDLEAWCDVMY [SEQ ID NO 76] | 49.8 | 2.7 | – | – |
| LPAADLAAWCHVMY [SEQ ID NO 82] | 48 | 3 | – | – |
| LPADDLAAWCHVMY [SEQ ID NO 84] | 46.7 | 3.1 | – | – |
| VASDDLASWCHVVY [SEQ ID NO 86] | 44.8 | 2.5 | – | – |
| AAADDVASWCHVMY [SEQ ID NO 87] | 44.5 | 2.3 | – | – |
| VPSDDLEFWCAVMY [SEQ ID NO 95] | 2.1 | 0.1 | – | – |
| AAADDLAAWCHVVY [SEQ ID NO 98] | 50.8 | 2.7 | – | – |
| FWMQLQDGFAIWFP [SEQ ID NO 15] | – | – | – | 27.8 |
